The assay deals with T1, mouse CD47 (SPR analyte) (mouse, UniProt Q61735 19-140, limits assumed).
T1 sequence (looked up): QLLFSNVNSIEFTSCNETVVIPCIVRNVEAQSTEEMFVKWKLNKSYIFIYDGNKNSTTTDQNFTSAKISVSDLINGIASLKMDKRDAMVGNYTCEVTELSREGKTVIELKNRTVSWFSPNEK
The experiment in a line: SPR (Biacore T200), 25 C; Fab captured by anti-human Fab, mouse CD47 as analyte; steady state. In general terms: In SPR one partner is held on a chip, and binding of the other changes the refractive index at the surface.

Description: HBS-P+ supplemented with 0.1% BSA was used as running buffer as well as for ligand and analyte dilutions. […] Ligand was captured at a flow rate of 10 μl/min to give an immobilisation level (RL) of ˜ 60 RU. The surface was then allowed to stabilise. Multi-cycle kinetic data was obtained using either human or mouse CD47 as the analyte injected at a flow rate of 30 μl/min. […] For each concentration, the association phases were monitored for 180 seconds, and the dissociation phase was measured for 300 seconds. Regeneration of the sensor chip surface was conducted between cycles using 10 mM glycine pH 2.1. The signal from the reference channel Fcl (no ligand captured) was subtracted from that of Fc2-4 to correct for bulk effect and differences in non-specific binding to a reference surface. The signal from each CD47 blank run (ligand captured but no antigen) was subtracted to correct for differences in surface stability. […] Mouse CD47 binding was analysed using steady state analysis.

B1: positive control anti-CD47 Fab (recombinant Fab using the variable domain sequences used in LB101) (Fab, V domains shown)
VH: QVQLVQSGAEVKKPGESLKISCKGSGYTFTNYYIFWVRQMPGKGLEWMGIINPVDGDTNYNPSFQGQVTISADKSISTAYLQWSSLKASDTAMYYCARGGYTMDRWGQGTLVTVSS
VL: DIVMTQSPLSLPVTPGEPASISCRSSQSLLHSNGYNYLHWYLQKPGQSPQLLIYKVSNRFSGVPDRFSGSGSGTDFTLKISRVEAEDVGVYYCFQNTHTPRTFGGGTKVEIK
As usually defined, the Kd is the constant that tells how readily two partners part at equilibrium. A low value points to a tighter complex. Molecule B1 had a Kd of 165 nM.

Source of the values: patent US20250002585A1 (CENTESSA PHARMACEUTICALS UK, published 2025).
